Consider five molecules from patent publication US20230038883A1, “SPECIFIC HOST FACTOR OF HEPATITIS B VIRUS INFECTION, AND USE THEREOF” (priority 2020, published 2023).

Test [1] concerns the target polypeptide containing amino acids 69-108 of preS1 (peptide^69-108) (hepatitis B virus). The test is described as follows: ForteBio Octet (BLI), biotin-labeled peptide. For orientation: BLI is a label-free optical method that tracks binding on a fibre tip over time.
Test [2] has the same target. The test is described as follows: ForteBio Octet; sensorgrams at 200, 100, 50 and 25 µg/mL.
A further test deals with NTCP mRNA. Kind of test: NTCP mRNA level under CREBH overexpression. The test is classed as cell-based. To be noted: overexpression in HepG2-NTCP. From the text:
NTCP is a key receptor in HBV infection and can directly bind to the PreS1 region on the virus. Many factors capable of affecting HBV infection may indirectly affect HBV infection by affecting the expression level or cellular localization of NTCP. In order to detect whether CREBH enhances HBV infection by affecting NTCP, changes in NTCP mRNA level under the condition of overexpressing CREBH was first detected.

Test [3] has as its system HBV. The test is described as follows: HBV infection of HepG2-NTCP cells transduced with CREBH and truncated forms (ELISA, HBcAg staining). The test is classed as cell-based. To be noted: transduced before infection; for HBV infection efficiency (ELISA): 1% PEG and 5% PEG, compared with PWPI-B empty control. As for the experimental part:
HepG2-NTCP cells were transduced with lentivirus embedded with CREBH and truncated forms thereof. After 24 hours, the cells were re-seeded in a culture plate, and the culture medium was changed to PMM. After 24 hours, the cells were infected with HBV in the presence of 1% PEG and 5% PEG respectively. Supernatant was collected every 2 days and assayed using an ELISA kit.
HBcAg staining was also performed in the experiments, and results were consistent with the ELISA results. […] It was thus speculated that these two truncated forms might have exerted a dominant-negative effect.

Another test deals with APOA4 gene. The test is described as follows: relative expression of APOA4 after transduction of truncated forms into HepG2-NTCP cells. The test is classed as cell-based. As for the experimental part: In order to detect whether each truncated form still had transcriptional activation ability, experiments were conducted by using the activation of APOA4 gene reported in the literature as an indicator of the transcriptional activation ability of CREBH. After the truncated forms were transduced into HepG2-NTCP cells, relative expression of APOA4 was detected. […] CREBH-C also had relatively high activation efficiency, which however was about ⅓ of the activation efficiency of the full-length CREBH.

For the next test, the system named is SCARF2 gene. The test is described as follows: SCARF2 expression after transduction of CREBH and truncated forms (mRNA sequencing, quantitative PCR). The test is classed as cell-based. To be noted: HepG2-NTCP cells transduced. From the text: Since the results of the infection occurred after the transduction of truncated forms of CREBH indicate that the transcriptional activation function of CREBH is necessary for enhancement of the infection, and the shortest functional truncated form CREBH-122-318 is localized on the nucleus, it is inferred that it is by activating a downstream gene that CREBH enhances HBV entry. In order to more accurately determine the downstream major gene, HepG2-NTCP cells transduced with CREBH, CREBH-122, CREBH-307, CREBH-122-318, CREBH-211-318, PWPI-B, and PMM were selected and used for transcriptome sequencing experiments. Meanwhile, CREBH siRNA-2 was selected and used to knock down CREBH in HepG2-NTCP cells. siNC was used as a negative control. Changes in transcriptomes were detected.
The same conclusion was also made from subsequent experiments using quantitative PCR, and the expression levels of SCARF2 were completely consistent with the enhancement effects of CREBH and its various truncated forms on HBV infection observed in the previous text.

In the next test the test system is hepatitis D virus (HDV). Kind of test: HDV infection. Type of test: cell-based. An excerpt:
This phenomenon can be explained and discussed from the following aspects. First, the present invention finds that HDV infection is more dependent on the expression of NTCP on the cell membrane than HBV infection, and HDV infection can occur more easily at a low PEG concentration. Although HDV and HBV have the same viral outer membrane, HDV can be assembled in the absence of L protein. […] Second, SCARF2 contains, at its C-terminus, a signal that can lead to its localization to the nuclear membrane, and a mutant with deletion of the C-terminal Proline-rich domain cannot enhance the infection.

For test [4], the system named is HBV. The test is described as follows: cDNA library screening by HBV infection of HepG2-NTCP cells in 1% PEG. Type of test: cell-based. As for the experimental part: The cDNA library was prepared by packaging lentivirus, with HepG2-NTCP cells expressing the cDNA clones being packaged therein. After 24 hours, infection was conducted with HBV at a same tier in the presence of 1% PEG. Culture supernatant was collected every 2 days, and was tested with HBeAg and HBsAg kits.

The test system of test [5] is HBV. The test is described as follows: HBV infection of HepG2-NTCP cells overexpressing SCARF2. Type of test: cell-based. How it is done:
FIGS. 8A, 8B, and 8C are schematic diagrams showing the effects of transduction of SCARF2 on infection in Example 6. (FIG. 8A) HepG2-NTCP cells were transduced with SCARF2, CREBH-122, or PWPI, and then infected with HBV in the presence of 1% PEG. (FIG. 8B) HepG2-NTCP cells were transduced with SCARF2, CREBH-122, or PWPI, and then infected with HBV in the presence of 5% PEG. (FIG. 8C) Nuclear and cytoplasmic fractions of the cells at 0 hour, 6 hours, 24 hours, and 72 hours after infection were isolated, and content of HBV DNA in each of the fractions was detected by southern-blot.
In the present invention, SCARF2 was first overexpressed in HepG2-NTCP cell line to test the effects of SCARF2 on HBV infection. […] Meanwhile, from HepG2-NTCP cell line stably expressing SCARF2, HBV DNA was isolated for analysis from the cytoplasm and the nucleus at different time points of HBV infection.

Setting [6] is: HepG2-NTCP stably expressing SCARF2, southern-blot.

A word on the Kd: it is the concentration at which binding is half-saturated. The low end stands for a tighter complex, the high end for a looser complex. For orientation: koff means a measure of how fast the partners let go of each other. High values mean a short-lived complex, low ones a long-lived complex. As usually defined, the kon is the rate constant with which the complex forms. Higher therefore signals fast association.

Chain of polypeptide containing amino acids 69-108 of preS1 (peptide^69-108) (hepatitis B virus) (P03138 69-108): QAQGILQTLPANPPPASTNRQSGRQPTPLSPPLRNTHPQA

Molecule “SCARF2 EGF4-6 protein (from UniProt Q96GP6 183-270) (Fc fusion)” showed a dissociation constant Kd in test [1] of 58 nM. Also, in test [2], the koff was determined as 0.000289 s⁻¹ and the kon is 4970 M⁻¹ s⁻¹.

B1: CREBH-122-318: truncated form of CREBH, residues 122-318, SEQ ID NO:3 (protein)
chain: MCLSYHPGNSCSTTTPGPVIQVPEASVTIDLEMWSPGGRICAEKPADPVDLSPRCNLTVKDLLLSGSSGDLQQHHLGASYLLRPGAGHCQELVLTEDEKKLLAKEGITLPTQLPLTKYEERVLKKIRRKIRNKQSAQESRKKKKEYIDGLETRMSACTAQNQELQRKVLHLEKQNLSLLEQLKKLQAIVVQSTSKSA
On to B1, for which, in the test on NTCP mRNA, the “NTCP mRNA level” value is reported as “slightly down-regulated”. In addition, the “HBV infection efficiency (ELISA)” value with HBV [3] is reported as “increase the infection efficiency”. Moreover, the “activation of APOA4 gene (relative expression)” value with APOA4 gene was “capable of activating APOA4 gene to some extent”. For the same molecule, the “expression of SCARF2” value in the test with SCARF2 gene is listed as “significantly up-regulates SCARF2”.

B2: CREBH-211-318: truncated form of CREBH, residues 211-318, SEQ ID NO:4, expresses only the bZIP domain (protein)
chain: QELVLTEDEKKLLAKEGITLPTQLPLTKYEERVLKKIRRKIRNKQSAQESRKKKKEYIDGLETRMSACTAQNQELQRKVLHLEKQNLSLLEQLKKLQAIVVQSTSKSA
Take B2: in the test with HBV [3], the “HBV infection (HBcAg staining, consistent with ELISA)” value was “to some certain extent inhibited the infection”. For the same molecule, the “expression of SCARF2” value in the test with SCARF2 gene is “does not lead to a change in SCARF2 expression”.

B3: CREBH: cAMP-responsive element-binding protein, hepatocyte specific; SEQ ID NO:1; expressed by lentiviral transduction (protein, listed as Homo sapiens)
chain: MNTDLAAGKMASAACSMDPIDSFELLDLLFDRQDGILRHVELGEGWGHVKDQQVLPNPDSDDFLSSILGSGDSLPSSPLWSPEGSDSGISEDLPSDPQDTPPRSGPATSPAGCHPAQPGKGPCLSYHPGNSCSTTTPGPVIQVPEASVTIDLEMWSPGGRICAEKPADPVDLSPRCNLTVKDLLLSGSSGDLQQHHLGASYLLRPGAGHCQELVLTEDEKKLLAKEGITLPTQLPLTKYEERVLKKIRRKIRNKQSAQESRKKKKEYIDGLETRMSACTAQNQELQRKVLHLEKQNLSLLEQLKKLQAIVVQSTSKSAQTGTCVAVLLLSFALIILPSISPFGPNKTESPGDFAPVRVFSRTLHNDAASRVAADAVPGSEAPGPRPEADTTREESPGSPGADWGFQDTANLTNSTEELDNATLVLRNATEGLGQVALLDWVAPGPSTGSGRAGLEAAGDEL
As to B3, the “NTCP mRNA level” value with NTCP mRNA is “slightly down-regulated”. The “HBV infection efficiency (ELISA)” value in the test on HBV [3] is “increase the infection efficiency”. The HDV infection entry in the test with hepatitis D virus (HDV) is “neither of CREBH and SCARF2 can enhance”. In the test on APOA4 gene, the “activation of APOA4 gene (relative expression)” value is “strongest activation effect”. Besides, the “expression of SCARF2” value in the test on SCARF2 gene was “can up-regulate the expression of SCARF2 gene, but not to a very significant level”. Also, the “number of HBcAg-positive cells” value in the test on HBV [4] (HBcAg staining) is “remarkably increases”. In addition, the “HBV infection (HBeAg, HBsAg in supernatant)” value with HBV [4] (HepG2-NTCP cells expressing cDNA clone, 1% PEG) was “remarkably enhances HBV infection”.

B4: SCARF2: Scavenger receptor family F protein, SEQ ID NO:8, overexpressed in HepG2-NTCP cells (protein, listed as Homo sapiens)
chain: MEGAGPRGAGPARRRGAGGPPSPLLPSLLLLLLLWMLPDTVAPQELNPRGRNVCRAPGSQVPTCCAGWRQQGDECGIAVCEGNSTCSENEVCVRPGECRCRHGYFGANCDTKCPRQFWGPDCKELCSCHPHGQCEDVTGQCTCHARRWGARCEHACQCQHGTCHPRSGACRCEPGWWGAQCASACYCSATSRCDPQTGACLCHAGWWGRSCNNQCACNSSPCEQQSGRCQCRERTFGARCDRYCQCFRGRCHPVDGTCACEPGYRGKYCREPCPAGFYGLGCRRRCGQCKGQQPCTVAEGRCLTCEPGWNGTKCDQPCATGFYGEGCSHRCPPCRDGHACNHVTGKCTRCNAGWIGDRCETKCSNGTYGEDCAFVCADCGSGHCDFQSGRCLCSPGVHGPHCNVTCPPGLHGADCAQACSCHEDTCDPVTGACHLETNQRKGVMGAGALLVLLVCLLLSLLGCCCACRGKDPTRRPRPRRELSLGRKKAPHRLCGRFSRISMKLPRIPLRRQKLPKVVVAHHDLDNTLNCSFLEPPSGLEQPSPSWSSRASFSSFDTTDEGPVYCVPHEEAPAESRDPEVPTVPAEAPAPSPVPLTTPASAEEAIPLPASSDSERSASSVEGPGGALYARVARREARPARARGEIGGLSLSPSPERRKPPPPDPATKPKVSWIHGKHSAAAAGRAPSPPPPGSEAAPSPSKRKRTPSDKSAHTVEHGSPRTRDPTPRPPGLPEEATALAAPSPPRARARGRGPGLLEPTDAGGPPRSAPEAASMLAAELRGKTRSLGRAEVALGAQGPREKPAPPQKAKRSVPPASPARAPPATETPGPEKAATDLPAPETPRKKTPIQKPPRKKSREAAGELGRAGAPTL
Take B4: the HDV infection entry in the test on hepatitis D virus (HDV) was “neither of CREBH and SCARF2 can enhance”. The HBV infection result in the test on HBV [5] (1% PEG or 5% PEG) is “can enhance HBV infection”. In the test on HBV [5] (setting [6]), the “HBV DNA in fractions of the cytoplasm” value is reported as “slightly increased”; the “rcDNA and cccDNA in fractions of the nucleus” value is “significantly increased”.
